Our source for the amyloid nucleation score values is the supplement of paper PMC12042874.

± gives the uncertainty stated by the source.

The series can be described thus: amyloid nucleation score (Sup35N fusion, yeast selection) (log enrichment); library NNK3; higher = more nucleation; inactive = no reads after selection. Summed up:
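DiMSum was used to calculate nucleation scores as log enrichment of output over input reads, centred on the mode score of non-aggregating sequences. Sequences with fewer than 100 input reads were not scored. Input and output came from Illumina sequencing of plasmid inserts in psi-negative yeast expressing peptides of 20 random codons fused to Sup35N, induced 24 hours with 100 μM copper sulfate and then grown 7 days at 30°C on medium lacking adenine and uracil.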
As for LTNGRNTYFLLSRYYFGTTS, the amyloid nucleation score entry is “inactive”.

On to LTNSYLDMLRM, for which the amyloid nucleation score result is “inactive”.

LTRDVCFN came in with an amyloid nucleation score of 0.312 ± 0.54.

LTSMI: the amyloid nucleation score entry was “inactive”.

Consider LTVLFTVCWVGTRAYGLIGG, for which the amyloid nucleation score result was “inactive”.

In the case of LTYTYGVGVMIGIITHRLVC, the amyloid nucleation score entry was “inactive”.

Turning to LVALVRECT, the amyloid nucleation score entry was “inactive”.

LVDVDVHR registered an amyloid nucleation score of -0.994 ± 2.5.

Regarding LVFPPAY, the amyloid nucleation score result was “inactive”.

For the substance LVGHEFTAGSNYDSDLGTV, the amyloid nucleation score entry was “inactive”.

The substance LVHIGFWCEVVQPLSCTDTS displayed an amyloid nucleation score of 0.028 ± 0.65.

Consider LVIVFCMVFLTFIF, for which the amyloid nucleation score worked out at 0.545 ± 0.13.

With LVMHMRLAWRECDHVSKQMR, the amyloid nucleation score was found to be 0.883 ± 0.15.

Turning to LVPVLNGVLSKLRSFNFHSG, the amyloid nucleation score result is “inactive”.

Turning to LVSLWLDRD, the amyloid nucleation score result is “inactive”.

Take LVVLIFYYV: the amyloid nucleation score result is “inactive”.

Take LVVLLFYFCYSHGYDEKVQW: the amyloid nucleation score came to 0.996 ± 0.12.

Regarding LVVSVRTYPTGCCPYKMLNQ, the amyloid nucleation score entry was “inactive”.

In turn, LVYLSASFVW came in with an amyloid nucleation score of 0.108 ± 0.67.

LVYNQVVHRFLTLVFLSYMS: the amyloid nucleation score entry is “inactive”.

Consider LVYNTDQSTRYAMTDYDADL, for which the amyloid nucleation score result is “inactive”.

As for LWDALDKDSESVIDMGQNEG, the amyloid nucleation score result is “inactive”.

Take LWDRVNCFYFRDEGDELEER: the amyloid nucleation score result was “inactive”.

For the substance LWEVRSEPDPDSSNKLLSRE, the amyloid nucleation score is 0.136 ± 0.39.

Turning to LWFPVEGGYPPSDVKQKHIS, the amyloid nucleation score stood at 0.086 ± 0.31.

On to LWGKNWIDVAECIVCLPQAS, for which the amyloid nucleation score result is “inactive”.

LWLFIAY: the amyloid nucleation score entry is “inactive”.

Turning to LWNVLHDNSHCSLGSTPLGQ, the amyloid nucleation score result was “inactive”.

LWRIILWPFVTWSDMMFFQF came in with an amyloid nucleation score of -0.076 ± 0.98.

Consider LWSWDDIHPFCLILLLTRCP, for which the amyloid nucleation score entry is “inactive”.

As for LWWCTLYSILYGTLSTYSCS, the amyloid nucleation score entry was “inactive”.

Take LWYFRFNFTAYNYFLWYDTS: the amyloid nucleation score entry is “inactive”.

Consider LYDTDSCLSSYCSPFRHPRY, for which the amyloid nucleation score entry was “inactive”.

LYFNRRWWPMRWVRDSPRPS: the amyloid nucleation score was determined as 0.024 ± 0.96.

As to LYGISL, the amyloid nucleation score result is “inactive”.

As to LYGTFVNSCQRFNLLDV, the amyloid nucleation score result is “inactive”.

Regarding LYLNEYELTLEAKRDYMNMR, the amyloid nucleation score entry is “inactive”.

For LYLVKVD, the amyloid nucleation score result is “inactive”.

As to LYLYI, the amyloid nucleation score result is “inactive”.

Take LYMNATLSYCGTYCMVTQMV: the amyloid nucleation score entry is “inactive”.

On to LYMVSYG, for which the amyloid nucleation score result is “inactive”.

With LYNVMGLALASLAISNLRDK, the amyloid nucleation score entry is “inactive”.

For the substance LYNVYGSRA, the amyloid nucleation score result is “inactive”.

As for LYRCDDGCSIRTVRDYWWVS, the amyloid nucleation score entry was “inactive”.

Regarding LYRVVSLSYAVCLILSRCFT, the amyloid nucleation score result was “inactive”.

Consider LYTNLTTVDLHCVKNA, for which the amyloid nucleation score result was “inactive”.

For LYVVCKLSHRPHNAWEKRVP, the amyloid nucleation score is 0.315 ± 0.29.

As to MACKLSTRKSSNWGKHLLCY, the amyloid nucleation score result is “inactive”.

As for MAHAFDTR, the amyloid nucleation score entry is “inactive”.

For the substance MAMDCLISTALVLLVKYASV, the amyloid nucleation score result was “inactive”.

MASIVFFCMPSETNFVV: the amyloid nucleation score entry was “inactive”.

With MCNFCQLFFTLLITSLFKLG, the amyloid nucleation score was found to be 0.807 ± 0.18.

Turning to MCYALMRTTWCGKLKIVLSG, the amyloid nucleation score entry was “inactive”.

For the substance MCYVVNAHGVASQ, the amyloid nucleation score entry was “inactive”.
